Measurements from PMC4564277, “Biochemical and Structural Insights into the Mechanism of DNA Recognition by Arabidopsis [sequence] INSENSITIVE3” (PLoS ONE, 2015).
Numbering of substitutions follows the chain as printed.

Assays:
[1] = target: T1, EIN3 82-352 (optimal DBD) (Arabidopsis thaliana, UniProt O24606 82-352); assay: EMSA; EMSA: 1 nM biotin probe, 10 mM Tris-HCl pH 7.5, 40 mM KCl, 3 mM MgCl2, 1 mM EDTA, 10% glycerol, 1 mM DTT, 1 ug poly(dI-dC) in 20 uL, room temperature, 30 min; settings: protein: recombinant; tags: N-terminal His6 (pET-28a); chain copies: 2; label: 3' biotin on forward strand; blunt
T1 sequence: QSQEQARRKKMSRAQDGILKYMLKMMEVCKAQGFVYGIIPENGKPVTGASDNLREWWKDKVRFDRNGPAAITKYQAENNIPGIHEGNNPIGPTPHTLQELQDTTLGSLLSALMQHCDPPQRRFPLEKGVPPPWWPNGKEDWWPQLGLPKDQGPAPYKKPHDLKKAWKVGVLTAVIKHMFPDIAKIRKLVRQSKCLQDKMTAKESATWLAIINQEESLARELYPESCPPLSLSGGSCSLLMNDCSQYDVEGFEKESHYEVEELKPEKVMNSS

[2] = target: T1, EIN3 82-352 (optimal DBD); assay: EMSA; tighter than ERF1; EMSA: 1 nM biotin probe, 10 mM Tris-HCl pH 7.5, 40 mM KCl, 3 mM MgCl2, 1 mM EDTA, 10% glycerol, 1 mM DTT, 1 ug poly(dI-dC) in 20 uL, room temperature, 30 min; settings: protein: recombinant; tags: N-terminal His6 (pET-28a); chain copies: 2; label: 3' biotin on forward strand; blunt
[3] = target: the molecule itself; assay: SEC-MALS; Superdex 200 analytical column, 1 ml/min, 10 mM Tris–HCl pH 7.5, 100 mM NaCl, 1 mM DTT, 4°C; no DNA
EIN3 68-352 = target: T2, EIN3 68-352 (Arabidopsis thaliana, UniProt O24606 68-352); assay: EMSA; EMSA: 1 nM biotin probe, 10 mM Tris-HCl pH 7.5, 40 mM KCl, 3 mM MgCl2, 1 mM EDTA, 10% glycerol, 1 mM DTT, 1 ug poly(dI-dC) in 20 uL, room temperature, 30 min; settings: protein: recombinant; tags: N-terminal His6 (pET-28a); chain copies: 2; label: 3' biotin on forward strand; blunt
T2 sequence: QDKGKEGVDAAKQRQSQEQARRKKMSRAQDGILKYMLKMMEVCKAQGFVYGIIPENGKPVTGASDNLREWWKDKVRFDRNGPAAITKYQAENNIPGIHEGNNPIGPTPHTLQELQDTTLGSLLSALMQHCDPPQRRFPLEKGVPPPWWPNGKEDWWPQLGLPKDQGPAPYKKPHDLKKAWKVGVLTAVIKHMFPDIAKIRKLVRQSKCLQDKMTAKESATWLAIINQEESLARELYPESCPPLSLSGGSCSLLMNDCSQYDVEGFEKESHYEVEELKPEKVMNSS

EIN3 91-352 = target: T3, EIN3 91-352 (Arabidopsis thaliana, UniProt O24606 91-352); assay: as above; settings: protein: recombinant; tags: N-terminal His6 (pET-28a); chain copies: 2; label: 3' biotin on forward strand; blunt
T3 sequence: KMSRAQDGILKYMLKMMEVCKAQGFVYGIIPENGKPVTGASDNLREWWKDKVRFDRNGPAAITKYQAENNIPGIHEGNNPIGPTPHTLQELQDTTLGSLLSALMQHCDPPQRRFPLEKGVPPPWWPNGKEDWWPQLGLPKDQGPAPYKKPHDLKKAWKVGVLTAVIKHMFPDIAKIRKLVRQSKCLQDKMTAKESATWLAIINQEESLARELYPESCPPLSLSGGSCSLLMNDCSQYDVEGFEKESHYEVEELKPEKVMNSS

EIN3 98-352 = target: T4, EIN3 98-352 (Arabidopsis thaliana, UniProt O24606 98-352); assay: as above; settings: protein: recombinant; tags: N-terminal His6 (pET-28a); chain copies: 2; label: 3' biotin on forward strand; blunt
T4 sequence: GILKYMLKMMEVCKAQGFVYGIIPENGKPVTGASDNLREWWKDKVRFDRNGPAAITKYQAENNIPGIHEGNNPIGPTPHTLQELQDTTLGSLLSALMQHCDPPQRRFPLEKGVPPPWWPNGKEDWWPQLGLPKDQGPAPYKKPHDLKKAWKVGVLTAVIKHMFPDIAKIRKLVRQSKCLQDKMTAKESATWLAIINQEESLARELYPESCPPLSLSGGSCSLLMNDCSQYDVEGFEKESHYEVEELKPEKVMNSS

[4] = target: T1, EIN3 82-352 (optimal DBD); assay: as above; settings: protein: recombinant, tags: N-terminal His6 (pET-28a), chain copies: 2
EIN3 82-352 P216S = target: T5, EIN3 82-352 P216S (Arabidopsis thaliana, UniProt O24606 82-352, P216S); assay: as above; settings: protein: recombinant; tags: N-terminal His6 (pET-28a); chain copies: 2; label: 3' biotin on forward strand; blunt
T5 sequence: T1 sequence with P135S

EIN3 1-352 = target: T6, EIN3 1-352 (Arabidopsis thaliana, UniProt O24606 1-352); assay: as above; settings: protein: recombinant; tags: N-terminal His6 (pET-28a); chain copies: 2; label: 3' biotin on forward strand; blunt
T6 sequence: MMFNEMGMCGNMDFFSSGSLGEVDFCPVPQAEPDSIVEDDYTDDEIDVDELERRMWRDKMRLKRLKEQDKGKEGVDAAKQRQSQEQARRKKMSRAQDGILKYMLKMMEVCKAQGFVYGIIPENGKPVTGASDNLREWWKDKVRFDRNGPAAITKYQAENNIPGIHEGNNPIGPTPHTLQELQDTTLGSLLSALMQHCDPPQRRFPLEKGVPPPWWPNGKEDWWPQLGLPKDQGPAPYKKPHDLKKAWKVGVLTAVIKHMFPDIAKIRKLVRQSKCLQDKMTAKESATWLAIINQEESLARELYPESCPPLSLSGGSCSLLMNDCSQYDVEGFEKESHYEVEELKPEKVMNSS

[5] = label: 3' biotin on forward strand, blunt

B1: 2EBS-S8 (dsDNA)
DNA 1: AAGATACATGCAAAAGCATGTATCTT
DNA 2: AAGATACATGCTTTTGCATGTATCTT
In the case of B1, the binding signal [1] is reported as ~3 fold higher Kd than 2EBS-S10.

B2: 2EBS-S10-36 (dsDNA)
DNA 1: TGAAGATACATGCAATTAAGCATGTATCTTGAATCC
DNA 2: GGATTCAAGATACATGCTTAATTGCATGTATCTTCA
B2: binds [2].

B3: EIN3 82–352 (optimal DNA-binding domain of Arabidopsis ETHYLENE …3) (domain or fragment, UniProt O24606 82-352, looked up)
chain: T1 sequence
notes: numbering based on UniProt O24606; Cloned into NheI/BamHI of pET-28a; Printed predicted Mw: monomer 31.29 kDa, dimer 62.58 kDa; also called optimal DBD; EIN3 truncation 82–352; source: E. coli Transetta (DE3), purified (Ni-NTA, Superdex 75 size exclusion)
With B3 the “stoichiometry N” value [3] was 2.

B4: ERF1 (dsDNA)
DNA 1: GTTGTTTGGGATTCAAGGGGCATGTATCTTGAATCC
DNA 2: GGATTCAAGATACATGCCCCTTGAATCCCAAACAAC
B4: binds (EIN3 68-352); binds (EIN3 91-352); binds (EIN3 98-352). B4: binds [4, 5]; binds (EIN3 82-352 P216S); binds (EIN3 1-352).

B5: 0EBS-S10 (dsDNA)
DNA 1: AAGTCGATCGCAAAAAAGCGATCGACTT
DNA 2: AAGTCGATCGCTTTTTTGCGATCGACTT
Binder B5 has a Kd [4, 5] of about 2280 nM.

B6: 2EBS-S10-R (dsDNA)
DNA 1: AAGATGTATGCAAAAAAGCATACATCTT
DNA 2: AAGATGTATGCTTTTTTGCATACATCTT
For B6, the Kd [4, 5] was about 1240 nM.

B7: 2EBS-S10 (dsDNA)
DNA 1: AAGATACATGCAAAAAAGCATGTATCTT
DNA 2: AAGATACATGCTTTTTTGCATGTATCTT
With B7 the Kd [4, 5] was about 110 nM.

B8: 2EBS-S5 (dsDNA)
DNA 1: AAGATACATGCAGCATGTATCTT
DNA 2: AAGATACATGCTGCATGTATCTT
With B8 the binding signal [1] was ~15 fold higher Kd than 2EBS-S10.

B9: 2EBS-S10-2 (dsDNA)
DNA 1: AAGGTACATGCAAAAAAGCATGTACCTT
DNA 2: AAGGTACATGCTTTTTTGCATGTACCTT
B9: binds [4, 5].

B10: 1EBS-S10 (dsDNA)
DNA 1: AAGATACATGCAAAAAAGCGATCGACTT
DNA 2: AAGTCGATCGCTTTTTTGCATGTATCTT
B10 was tested, and the Kd [4, 5] was about 690 nM.

AAGATACATGCAAAAAAGCATGTATCTT (ssDNA) [2EBS-S10-F]: no binding ([4]; label: 3' biotin, single strand).
